Measurements: the supplement of paper PMC12338614
± gives the uncertainty stated by the source.

B1: library; numbered along this chain (parent)
chain: MEVVDPQQLGMFTEGELMSVGMDTFIHRIDSTEVIYQPRRKRAKLIGKYLMGDLLGEGSYGKVKEVLDSETLCRRAVKILKKKKLRRIPNGEANVKKEIQLLRRLRHKNVIQLVDVLYNEEKQKMYMVMEYCVCGMQEMLDSVPEKRFPVCQAHGYFCQLIDGLEYLHSQGIVHKDIKPGNLLLTTGGTLKISDLGVAEALHPFAADDTCRTSQGSPAFQPPEIANGLDTFSGFKVDIWSAGVTLYNITTGLYPFEGDNIYKLFENIGKGSYAIPGDCGPPLSDLLKGMLEYEPAKRFSIRQIRQHSWFRKKHPPAEAPVPIPPSPDTKDRWRSMTVVPYLEDLHGADEDEDLFDIEDDIIYTQDFTVPGQVPEEEASHNGQRRGLPKAVCMNGTEAAQLSTKSRAEGRAPNPARKACSASSKIRRLSACKQQ

Variants of: B1
Assay: STK11 functional score (HeLa growth suppression), rescaled enrichment; synonymous median = 1, nonsense median = 0 (normalised score)
Details: with HeLa; variant type: missense
Method in brief: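 The functional score takes the post/pre-selection log ratio, corrects it to wild type, rescales it to synonymous and nonsense medians, and merges it over codons and replicate transfections, with error from bootstrapping. Counts came from tiled gDNA amplicons sequenced on NextSeq (~2 million reads per tile). The libraries were POPCode codon-randomised, codon-optimised STK11 integrated by Bxb1 at an AAVS1 landing pad in HeLa, three regions with three transfections each.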

I172A and K84L are within error of each other in STK11 functional score: 1.02 ± 0.78 for the first, 1.64 ± 0.17 for the second.

Compared with R103H, R103P is lower in STK11 functional score: 1.6 ± 0.32 for the first, 0.985 ± 0.18 for the second.

Going from K329A to K329W, the STK11 functional score falls from 1.58 ± 0.16 to 0.742 ± 0.31.

R106F and R106V are within error of each other in STK11 functional score: 1.56 ± 0.17 for the first, 1.6 ± 0.15 for the second.

E121N and G21A are within error of each other in STK11 functional score: 1.57 ± 0.23 for the first, 1.39 ± 0.38 for the second.

R304L and R147W are within error of each other in STK11 functional score: 1.06 ± 0.17 for the first, 0.777 ± 0.16 for the second.

E357H and E357I are within error of each other in STK11 functional score: 1.6 ± 0.17 for the first, 1.56 ± 0.26 for the second.

E357R and K312S are within error of each other in STK11 functional score: 1.36 ± 0.17 for the first, 1.29 ± 0.3 for the second.

K312E and T32P are within error of each other in STK11 functional score: 0.874 ± 0.5 for the first, 1.48 ± 0.37 for the second.

Compared with V368D, V368W is lower in STK11 functional score: 1.53 ± 0.14 for the first, 0.786 ± 0.6 for the second.

R425G and R425L are within error of each other in STK11 functional score: 1.55 ± 0.27 for the first, 1.4 ± 0.26 for the second.

G268A and G268Q are within error of each other in STK11 functional score: 0.916 ± 0.13 for the first, 1.26 ± 0.61 for the second.

Compared with L182V, L182P is lower in STK11 functional score: 0.907 ± 0.12 for the first, -0.0858 ± 0.071 for the second.

A318C and T395D are within error of each other in STK11 functional score: 1.23 ± 0.49 for the first, 1.56 ± 0.2 for the second.

T395P and L344V are within error of each other in STK11 functional score: 1.32 ± 0.53 for the first, 1.42 ± 0.27 for the second.

L344K and A205F are within error of each other in STK11 functional score: 1.59 ± 0.27 for the first, 1.35 ± 0.2 for the second.

First: A205D
Second: D284V
The STK11 functional score of the first is higher: 1.33 ± 0.46 for the first, 0.716 ± 0.093 for the second.

Compared with M136Q, C210T is higher in STK11 functional score: 0.0397 ± 0.082 for the first, 1.35 ± 0.19 for the second.

C210P and C210I are within error of each other in STK11 functional score: 1.18 ± 0.4 for the first, 1.12 ± 0.19 for the second.

First: S240W
Second: S240L
The STK11 functional score of the first is lower: -0.126 ± 0.094 for the first, 0.708 ± 0.14 for the second.

R211T and Q170G are within error of each other in STK11 functional score: 1.22 ± 0.53 for the first, 1.37 ± 0.37 for the second.

S213V and V143L are within error of each other in STK11 functional score: 1.02 ± 0.12 for the first, 1.17 ± 0.15 for the second.

First: E223L
Second: A397S
The STK11 functional score of the first is lower: 0.529 ± 0.18 for the first, 1.26 ± 0.17 for the second.

I192F and E265W are within error of each other in STK11 functional score: 1.13 ± 0.53 for the first, 1.57 ± 0.21 for the second.

Going from E16A to E16K, the STK11 functional score falls from 1.53 ± 0.46 to 0.291 ± 0.28.

Y60N and V337L are within error of each other in STK11 functional score: 0.674 ± 0.26 for the first, 0.924 ± 0.13 for the second.

G385N and G385M are the same in STK11 functional score: 1.59 ± 0.27 for the first, 1.59 ± 0.24 for the second.

Compared with L201M, L201E is lower in STK11 functional score: 0.914 ± 0.17 for the first, 0.334 ± 0.27 for the second.

E256A and E256I are within error of each other in STK11 functional score: 0.686 ± 0.64 for the first, 1.04 ± 0.77 for the second.

P6E and Y246V are within error of each other in STK11 functional score: 1.24 ± 0.47 for the first, 0.944 ± 0.15 for the second.

G135L and K175N are within error of each other in STK11 functional score: 1.52 ± 0.15 for the first, 0.914 ± 0.55 for the second.

E70C and P221S are within error of each other in STK11 functional score: 1.39 ± 0.52 for the first, 1.07 ± 0.22 for the second.

Going from P221V to P221Y, the STK11 functional score falls from 1.01 ± 0.12 to -0.0979 ± 0.12.

Going from L282I to L282F, the STK11 functional score rises from 0.764 ± 0.1 to 1.21 ± 0.33.

C134Y and G215N are within error of each other in STK11 functional score: 1.15 ± 0.92 for the first, 1.43 ± 0.19 for the second.

G215S and A389Y are within error of each other in STK11 functional score: 1.11 ± 0.18 for the first, 1.15 ± 0.53 for the second.

Going from Q7M to R331D, the STK11 functional score rises from 0.16 ± 0.091 to 1.24 ± 0.36.

Going from W239V to D68R, the STK11 functional score rises from -0.13 ± 0.092 to 1.07 ± 0.21.

First: G257R
Second: G257I
The STK11 functional score of the first is lower: 0.694 ± 0.29 for the first, 1.66 ± 0.44 for the second.

First: K62S
Second: L105V
The STK11 functional score of the first is higher: 1.39 ± 0.32 for the first, 0.842 ± 0.15 for the second.

F366V and G91F are within error of each other in STK11 functional score: 1.42 ± 0.54 for the first, 0.906 ± 0.23 for the second.

Compared with G91I, G91V is lower in STK11 functional score: 1.63 ± 0.22 for the first, 0.481 ± 0.08 for the second.

D23H and R40C are within error of each other in STK11 functional score: 1.22 ± 0.68 for the first, 1.39 ± 0.074 for the second.

T249I and G188S are within error of each other in STK11 functional score: 0.664 ± 0.24 for the first, 1.05 ± 0.37 for the second.

Compared with A410G, A410M is lower in STK11 functional score: 1.23 ± 0.24 for the first, 0.531 ± 0.42 for the second.

G346Y and E317H are within error of each other in STK11 functional score: 1.57 ± 0.17 for the first, 1.25 ± 0.28 for the second.

E317R and N94P are within error of each other in STK11 functional score: 1.58 ± 0.22 for the first, 1.21 ± 0.64 for the second.

N94Q and N94Y are within error of each other in STK11 functional score: 1.2 ± 0.65 for the first, 0.568 ± 0.34 for the second.

P339M and E145C are within error of each other in STK11 functional score: 1.62 ± 0.14 for the first, 1.41 ± 0.52 for the second.

Compared with G242C, T186Y is higher in STK11 functional score: -0.0194 ± 0.091 for the first, 1.14 ± 0.14 for the second.

First: T186M
Second: A198T
The STK11 functional score of the first is lower: 0.369 ± 0.12 for the first, 1.23 ± 0.13 for the second.

A198W and R384M are within error of each other in STK11 functional score: 1.16 ± 0.18 for the first, 1.36 ± 0.16 for the second.

Compared with R384V, N181R is lower in STK11 functional score: 1.22 ± 0.16 for the first, -0.0333 ± 0.096 for the second.

D348M and L113A are within error of each other in STK11 functional score: 0.896 ± 0.66 for the first, 0.492 ± 0.17 for the second.

P280K and G279I are within error of each other in STK11 functional score: 1.67 ± 0.19 for the first, 1.41 ± 0.4 for the second.

First: G279N
Second: S59A
The STK11 functional score of the first is higher: 1.57 ± 0.16 for the first, 1.19 ± 0.2 for the second.

Going from Q214E to D229W, the STK11 functional score falls from 1.36 ± 0.5 to 0.347 ± 0.17.

D229M and D229L are within error of each other in STK11 functional score: 1.28 ± 0.35 for the first, 1.05 ± 0.19 for the second.

M125K and D30L are within error of each other in STK11 functional score: 1.04 ± 0.67 for the first, 1.07 ± 0.12 for the second.

E293D and E293W are within error of each other in STK11 functional score: 1.43 ± 0.47 for the first, 1.07 ± 0.23 for the second.

F204Y and V34A are within error of each other in STK11 functional score: 0.593 ± 0.2 for the first, 1.03 ± 0.57 for the second.

L386H and L386I are within error of each other in STK11 functional score: 0.959 ± 0.14 for the first, 1.14 ± 0.22 for the second.

D5N and K416D are within error of each other in STK11 functional score: 1.24 ± 0.67 for the first, 1.61 ± 0.12 for the second.

E376V and E376W are within error of each other in STK11 functional score: 1.07 ± 0.15 for the first, 0.781 ± 0.22 for the second.

E376R and V95H are within error of each other in STK11 functional score: 1.39 ± 0.16 for the first, 1.64 ± 0.19 for the second.

Going from V95G to V95A, the STK11 functional score rises from 0.326 ± 0.15 to 1.28 ± 0.19.

V95D and A295F are within error of each other in STK11 functional score: 1.5 ± 0.27 for the first, 1.08 ± 0.42 for the second.

Compared with R310D, R74A is lower in STK11 functional score: 1.6 ± 0.15 for the first, 0.0507 ± 0.14 for the second.

Compared with R74L, H313S is lower in STK11 functional score: 1.42 ± 0.094 for the first, 1.17 ± 0.15 for the second.

H313Y and Q137K are within error of each other in STK11 functional score: 0.272 ± 0.7 for the first, 0.752 ± 0.41 for the second.

T230E and S428F are within error of each other in STK11 functional score: 1.65 ± 0.17 for the first, 1.61 ± 0.12 for the second.

S428D and K97A are within error of each other in STK11 functional score: 1.21 ± 0.45 for the first, 1.47 ± 0.27 for the second.

Going from D358S to D358E, the STK11 functional score falls from 1.47 ± 0.25 to 0.693 ± 0.27.

Compared with A93H, A93L is lower in STK11 functional score: 1.66 ± 0.18 for the first, 1.12 ± 0.26 for the second.

V3P and L117W are within error of each other in STK11 functional score: 1.69 ± 0.37 for the first, 1.29 ± 0.066 for the second.

V243L and V243G are within error of each other in STK11 functional score: 0.714 ± 0.13 for the first, 0.469 ± 0.16 for the second.

First: L184V
Second: L184M
The STK11 functional score of the first is higher: 1.01 ± 0.21 for the first, 0.45 ± 0.16 for the second.

T212L and T212C are within error of each other in STK11 functional score: 1.06 ± 0.33 for the first, 1.32 ± 0.41 for the second.

Compared with Q100S, I303F is lower in STK11 functional score: 1.1 ± 0.18 for the first, 0.372 ± 0.088 for the second.

K48S and K48Q are within error of each other in STK11 functional score: 1.37 ± 0.19 for the first, 1.41 ± 0.37 for the second.

Going from T402E to T402V, the STK11 functional score falls from 1.59 ± 0.24 to 0.686 ± 0.18.

Q371F and L190A are within error of each other in STK11 functional score: 1.12 ± 0.24 for the first, 0.537 ± 0.49 for the second.

First: L190W
Second: D359W
The STK11 functional score of the first is lower: 0.118 ± 0.15 for the first, 1.07 ± 0.22 for the second.

I29R was tested, and the STK11 functional score was 1.14 ± 0.18.
